Source: the DeepSol protein solubility set

Test: soluble on expression in E. coli; label from the status in PepcDB or PDB records
With “MHTFILLLTVLCAGAYTQFTANGQAAILNVHNTLRSRIAKGTYVARGTVKHAASDMLKMKWLRSLATSSQIYANRCPTGHSNMIGVGENLYWYWTSGTITNIDQFGAMASAAWEKEFQDYGWSSNTLTMSLFNSGVGHATQMAWAKTNLIGCGVKNCGMDTNGMNKVAVVCHYQPQGNYLNQNIYTSGTTCSKCPAGTSCEAATGLCV” the “soluble on expression in E. coli” value was “not soluble”. In the case of “MKITIIGAGNIGSAVAACLAKGHLYNEKDIIISTPHTDKLENLHKQFPAIRIMTENQYAISEADIIILAVKPCIVDEVLSPLRFSRTQILVSLVTGISISHLAHLSETEMPIFRVVPNIAITEHSSLTLITSRKAGKEHQQLIKQTFEEGGKCLFAEEKQLDIISALTSSGIAFALKYIHAAMQAGIELGISAEDAMRMTAYSMEGATELILNHDTHPLLEIEKAATPGGATIKGLNELEHRGFTSAVIHAIKSSATVSTDKETEE”, the “soluble on expression in E. coli” value is reported as “not soluble”. With “MLPEHLVSSHFRLSSPPPEATENSKNLPKGKTKLSDYEPDILISANAAGQHRNVLFEERDRHIKERLYCVAKIETFARLINALQAEGDIDAQTLSKILADKTAMINEKGNAIWLNLITRETDMPLFYSLEDKDERS” the “soluble on expression in E. coli” value was “not soluble”. With “MAYRNIKIVKGNGGFGGPLIIAPTDEKHKFIYITGGGEKPEIVDKIVELTGMEAVNGFKTSIPDEEIALAIVDCGGTLRCGIYPKKGIPTINIVATGKSGPLAQYITEDIYVSAVGMEQITSIEESAGSIETKEAKAETAQSQTGTGTYDTSKKITEQRAQQSVIARIGMGAGKVVAVFNQAARDAIQ” the “soluble on expression in E. coli” value was “not soluble”. For “EETIPLQTLRCYNDYTSHITCRWADTQDAQRLVNVTLIRRVNEDLLEPVSCDLSDDMPWSACPHPRCVPRRCVIPCQSFVVTDVDYFSFQPDRPLGTRLTVTLTQHVQPPEPRDLQISTDQDHFLLTWSVALGSPQSHWLSPGDLEFEVVYKRLQDSWEDAAILLSNTSQATLGPEHLMPSSTYVARVRTRLAPGSRLSGRPSKWSPEVCWDSQPGDEAQPQNLECFFDGAAVLSCSWEVRKEVASSVSFGLFYKPSPDAGEEECSPVLREGLGSLHTRHHCQIPVPDPATHGQYIVSVQPRRAEKHIKSSVNIQMAPPSLQVTKDGDSYSLRWETMKMRYEHIDHTFEIQYRKDTATWKDSKTETLQNAHSMALPALEPSTRYWARVRVRTSRTGYNGIWSEWSEARSWDTES”, the “soluble on expression in E. coli” value was “soluble”. In the case of “AGTHDYSTALKDSIIFFDANKCGPQAGENNVFDWRGACHTTDGSDVGVDLTGGYHDAGDHVKFGLPQGYSAAILGWSLYEFKESFDATGNTTKMLQQLKYFTDYFLKSHPNSTTFYYQVGEGNADHTYWGAPEEQTGQRPSLYKADPSSPASDILSETSAALTLMYLNYKNIDSAYATKCLNAAKELYAMGKANQGVGNGQSFYQATSFGDDLAWAATWLYTATNDSTYITDAEQFITLGNTMNENKMQDKWTMCWDDMYVPAALRLAQITGKQIYKDAIEFNFNYWKTQVTTTPGGLKWLSNWGVLRYAAAESMVMLVYCKQNPDQSLLDLAKKQVDYILGDNPANMSYIIGYGSNWCIHPHHRAANGYTYANGDNAKPAKHLLTGALVGGPDQNDKFLDDANQYQYTEVALDYNAGLVGVLAGAIKFFGGTIVNPPVKK”, the “soluble on expression in E. coli” value is reported as “soluble”. For “MGSDKIHHHHHHMHSFHDAFSAPNAGNDTEAKRLPAKRRIRLKTAVLGVLLLASVAAQAEPRLTDLQYIGSHNSYHAGFAPSEATLLKQHDPAAFATLDYRHPPLTQQLDDGVRQLELDVFADAHGGRYAHPAIVEQIAKAGLPPAPASAPAGVMNKPGFKVLHVQDVDQRSTCQPLVTCLQEVRAWSQQHPGHLPIFILLETKQSPVQLSFPTVQPEPFDRKAMDALDAELRSVFRPGEYVSPDTVRGTARTLNAAVLAHGWPALRATRGKVVFLLDQRAAGASYLPGHPSLRGRVCFTNAEPGQDDAAFTERNDGPAEDITRLVQAGYLVRTRTDADLKEPARGDNRRRDAMLATGAQLLSTDFPAHEPARNGYVVRFDGDAVARCAPQLPRAHCEGVDLTH”, the “soluble on expression in E. coli” value was “not soluble”. For “MPIRHCIVHLIEKKPDGTPAVLHARDSELAESQAIENMLADLNESYNAKQGKAWGLFHPESGAHPFSGWLKEYLDGGKDFTAFSRVSVEHLQKLMEESNLSVGGHVLFAHYQQGMTDYLAIALLHHSDGVAVNAELDVTPSRHLDLGQLHLAARINISEWQNNKQSKQYISFIKGKNGKKVSEYFRDFIGCQEGVDGPGETRTLLKAFSDFVESEDLPEESAREKTKTLIDYASSQSKMGEPMGLEALSELIDENQPRAFYDHIRNKDYGLSPEIPADKRTLNQFRRFTGRAEGLSISFEAHLLGDKIEYDETAGTLIIKGLPTQLTDQLKRRLEHHHHHH”, the “soluble on expression in E. coli” value was “not soluble”. With “MGSDKIHHHHHHMLKNDQLDQWDRDNFFHPSTHLAQHARGESANRVIKTASGVFIEDRDGTKLLDAFAGLYCVNVGYGRQEIAEAIADQARELAYYHSYVGHGTEASITLAKMILDRAPKNMSKVYFGLGGSDANETNVKLIWYYNNILGRPEKKKIISRWRGYHGSGLVTGSLTGLELFHKKFDLPVEQVIHTEAPYYFRREDLNQTEEQFVAHCVAELEALIEREGADTIAAFIGEPILGTGGIVPPPAGYWEAIQTVLNKHDILLVADEVVTGFGRLGTMFGSDHYGLEPDIITIAKGLTSAYAPLSGSIVSDKVWKVLEQGTDENGPIGHGWTYSAHPIGAAAGVANLKLLDELNLVSNAGEVGAYLNATMAEALSQHANVGDVRGEGLLCAVEFVKDRDSRTFFDAADKIGPQISAKLLEQDKIIARAMPQGDILGFAPPFCLTRAEADQVVEGTLRAVKAVLG” the “soluble on expression in E. coli” value was “not soluble”. In the case of “MSLTRHQRLFVWTVTHGFREYGVAQQKTHHNTMSPEAAIEWVVRQEPGIFIFKDLHPFISSPAVTRWLREAIASFKGTEKAIILMSPYQETPIELEKDVVVLDFALPDLVTLDGVLGQQLGKSRHALGEDSREKLLKAALGLTKDEAEKVYRKAYVKAGQLTEGEVEIVLSEKKQMIRRNEGHHHHHH”, the “soluble on expression in E. coli” value is reported as “not soluble”. For “MEVDTSSSSSSEDECDPSSPSTAYIHSASVRLSVGTEEAARTVADVIKIDKEPRRSGARREVCSEGEFVVIKIESKDPKSLSKSIANAVDMIDLSVKTIKLCENLGKSKENGLKRKLSNGSQA”, the “soluble on expression in E. coli” value was “not soluble”. In the case of “MKQQAIDEQLRNAIEYTPEMFTQVPMLYINIEINNYPVKAFVDTGAQTTIMSTRLAKKTGLSRMIDKRFIGEARGVGTGKIIGRIHQAQVKIETQYIPCSFTVLDTDIDVLIGLDMLKRHLACVDLKENVLRIAEVETSFLSEAEIPK”, the “soluble on expression in E. coli” value is reported as “soluble”. In the case of “YQQDQVVKEDNIEAVGKKLHKYNTQFQEKSREYDRLYEEYTRTSQEIQMKRTAIEAFNETIKIFEEQCQTQERYSKEYIEKFKREGNEKEIQRIMHNYDKLKSRISEIIDSRRRLEEDLKKQAAEYREIDKRMNSIKPDLIQLRKTRDQYLMWLTQKGVRQKKLNEWLGN”, the “soluble on expression in E. coli” value is reported as “soluble”. For “MGSDKIHHHHHHMKLNHRQLEAFRAMIETGSVTEASKRIGVTQPAASRLISDLEYAIGYALFLREKKRLTPTPEAMALFEEVDRSYIGLGLIGDAARDIGANRRGALRIASLPAMALSFLPKVISKFCEDKPDISVDMQIHSSQRVIQCVASQQFDLGFAEIDSLHPAVKSQAFFESPMVAILPKHHPLCRKATLTPQDFSNENFIALGSNYTMRKRIDALFLANNITRKIQIETQLSMAVANLVASGAGVSIIEALTASSFRGLNLVEARPFLPEITYTYRVLSPAHRPISLLTASFINATRDALMKFDVSGHAL”, the “soluble on expression in E. coli” value was “not soluble”. For “MQTGNGEYHMGNTMTKAIYEKFKSATPYGNTVATGAIPTETVDIAVNVGGFKVGDQNYPINPKVTFTNNTGQDIPGGTEFQFDIPVSAPDNAKDQSGGGLQVIASGHTRPNNIGGLDGTMHRVAFTLPAWKALPAGGVYELDMVYYLPISGPANYTVNINNVDYAFKFEQPDLPLADLSSLEHHHHHH”, the “soluble on expression in E. coli” value was “soluble”. In the case of “MKVAVLPGDGIGPEVTEAALKVLRALDEAEGLGLAYEVFPFGGAAIDAFGEPFPEPTRKGVEEAEAVLLGSVGGPKWDGLPRKIRPETGLLSLRKSQDLFANLRPAKVFPGLERLSPLKEEIARGVDVLIVRELTGGIYFGEPRGMSEAEAWNTERYSKPEVERVARVAFEAARKRRKHVVSVDKANVLEVGEFWRKTVEEVGRGYPDVALEHQYVDAMAMHLVRSPARFDVVVTGNIFGDILSDLASVLPGSLGLLPSASLGRGTPVFEPVHGSAPDIAGKGIANPTAAILSAAMMLEHAFGLVELARKVEDAVAKALLETPPPDLGGSAGTEAFTATVLRHLA”, the “soluble on expression in E. coli” value is reported as “soluble”. For “MAELQKVDDWLSALLANLEPAARSRMMRQLAQELRRTQQQNIRMQRNPDGSSYEPRRVTARSKKGRIKRQMFAKLRTTKYLKTAASADSASVQFEGKVQSIARVHHYGLRDRVSRKGPEVRYAERRLLGVNDDVEAMTRDMILQWLAG”, the “soluble on expression in E. coli” value was “not soluble”. With “MNMSQNLDFIHSAQRTIGLERDAVDSLLARIGDDFVKACELLLAGKGRVVVVGMGKSGHVGKKIAATLASTGTPSFFVHPAEASHGDMGMITKDDVVLALSNSGSTAEIVTLLPLIKRLGITLISMTGNPESPLAKAAEVNLDASVGQEACPLNLAPTSSTTVTLVLGDALAIALLEARGFTAEDFAFSHPGGALGRRLLLKVEDVMHVGEGLPQVLLGTSLTGALMEMTRKGLGMTVVLDEHGKLAGIFTDGDLRRALDRGIDVRQVTIDQVMTVHGKTVRAEILAAEALKIMEDNKIGALVVVDADDRPVGALNMHDLLRAGVM” the “soluble on expression in E. coli” value was “not soluble”. In the case of “MASYSQFLTKAQEDELRSIANAIVTPGKGILAADESTGSMDKRLNSIGLENTEENRRKYRQLLFTAGADLNKYISGVIMFHETFYQKTDDGKPFTALLQEQGIIPGIKVDKGVVPMAGTIGEGTTQGLDDLNARCAQYKKDGAQFAKWRCVHKISSTTPSVTALKEIASNLARYASICQQNGLVPIVEPEILPDGEHCLARGQKITETVLSYVYHALNEHHVFLEGTLLKPNMVTSGQSFTGEKPSNADIGLATVTALQRGVPSAVPGVVFLSGGQSEEDATLNLNAINQVSGKKPWALTFSYGRALQASCLAKWAGKDENIAAAQEVLLHRAQVNSLASVGKYTGDASADAAASQSLFVANHSY”, the “soluble on expression in E. coli” value is reported as “soluble”. In the case of “MGSDKIHHHHHHMAYIKRTIETTIENAAKMFSTVLITGARQVGKTTVLKHITEDISYLTLDDPILLLNAFEEAGSFFKSTPPPVIIDEIQYAPNLFPYIKMIADENGKRGQFYLTGSQQFKMMKNVSESLAGRIGIINLLGLSLREIKGDADFNKAFIPTESYLETRRLSAKELNYKEIWKIIYKGSMPAMYADELDWQLFYGSYTKTYLERDVRELTQVGDELKFIKFMTAMASRTSQMLNLTSIANEVGISVPTADRWLSILVSSNIVYLLKPYYNNIMKRAVKTPKLYFLDTGLAAYLTKWNSPDVIEAGAMSGAFFETFVLAEILKGYYNAGILEPALYYYRDKDAKEIDIILEENGTLYPIEIKKTANPSKEHIANFSVLDRLKDMKIGTGCVICMYDKVIHINDNNVSIPVTWL”, the “soluble on expression in E. coli” value is reported as “not soluble”. In the case of “MEEGDIVGILKVFFVRTGAIGKRLGFKAGDIRIREEIVQANLTWKEDGEIRRERIKTRFFGYFRSHVAEWEPVIAAESVDVERGEVARIKIKEITLPEYTVITPLFIRRHALGSLIDVVQQGKRRKVEEKKRIGEAIFLPARSGRVEKGDLLGVINVYYIATENFSVGRREKDEVLAKVVDERGRKEFRIKPFAYRRKTIARWEPIVAAENRKVRKGEVEEIAIEPISLEENTIVYPLYVMRNAFGSVVDVVEERPRRVEERREIIKAVFLPVFDGEIRKGQLLGVMNVYSIEVQPYEVIWRWLEEWQGEFRRLFAEVVGLEHHHHHH”, the “soluble on expression in E. coli” value is reported as “soluble”. In the case of “MNMLEKVQSQLEHLSKSERKVADVILAAPGRSIHLSIAMLAQEANVSEPTVNRFCRSMNTRGFPDFKLHLAQSLANGTPYVNRNVDEDDSVEAYTGKIFESAMASLDHVRQSLDKSAVNRAVDLLTQAKKIAFFGLGSSAAVAHDAMNKFFRFNVPVIYSDDIVLQRMSCMNCSDDDVVVLISHTGRTKSLVELAQLARENDAMVIALTSAGTPLAREATLAITLDVPEDTDIYMPMVSRLAQLTVIDVLATGFTLRRGAKFRDNLKRVKEALKESRFDKELLIKSDDR”, the “soluble on expression in E. coli” value is reported as “not soluble”.
